This experiment concerns the target phytochrome B (PhyB), amino acids 1-651, biotinylated (Arabidopsis thaliana) (UniProt P14713).
Sequence of UniProt P14713 (P14713 1-651): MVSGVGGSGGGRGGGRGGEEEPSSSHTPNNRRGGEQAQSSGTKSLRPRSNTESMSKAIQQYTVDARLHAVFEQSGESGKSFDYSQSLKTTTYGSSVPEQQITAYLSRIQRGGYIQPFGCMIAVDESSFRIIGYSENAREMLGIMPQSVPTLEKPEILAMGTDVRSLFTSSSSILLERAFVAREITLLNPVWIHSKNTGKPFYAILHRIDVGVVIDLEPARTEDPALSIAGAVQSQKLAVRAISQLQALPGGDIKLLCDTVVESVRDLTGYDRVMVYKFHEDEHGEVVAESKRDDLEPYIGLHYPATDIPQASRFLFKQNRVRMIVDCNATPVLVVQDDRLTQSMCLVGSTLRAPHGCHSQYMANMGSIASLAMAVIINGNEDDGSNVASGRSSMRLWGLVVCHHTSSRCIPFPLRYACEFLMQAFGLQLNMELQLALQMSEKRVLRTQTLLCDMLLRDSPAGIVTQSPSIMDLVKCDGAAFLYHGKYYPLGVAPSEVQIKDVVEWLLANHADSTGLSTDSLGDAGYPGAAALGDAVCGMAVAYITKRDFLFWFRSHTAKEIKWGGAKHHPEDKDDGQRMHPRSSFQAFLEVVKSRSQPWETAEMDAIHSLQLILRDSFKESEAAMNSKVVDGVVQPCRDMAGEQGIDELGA

Regarding “OptoIntegrin: human integrin αVβ3 with PIF^S inserted between Met180 and Lys181 of the β subunit (construct pJB005) (from UniProt Q8L5W7 1-100; P06756 31-1048) (receptor)”, the cells with paxillin clustering at the cellular periphery, HeLa stably expressing OptoIntegrin on PhyB (1–651)-coated glass, constant 660 nm light was 80 % of cells; the cells with paxillin clustering at the cellular periphery, HeLa stably expressing OptoIntegrin on PhyB (1–651)-coated glass, treated with far-red (740 nm) light is 20 % of cells; the cells with paxillin clusters at the edges, HEK-293T stably expressing OptoIntegrin on PhyB (1–651)-coated glass, constant 660 nm light is 55 % of cells; the cells with paxillin clusters, HEK-293T stably expressing OptoIntegrin on PhyB (1–651)-coated glass, 1.5 h 660 nm then switched to 740 nm for 0.5 h is 40 % of cells.

These data come from paper PMC6325061.
